{
  "source": "patent US5824484",
  "about": "“RXR homodimer formation” (La Jolla Cancer Research Foundation)",
  "key": {"Estrogen receptor": {"molecular_target": "Estrogen receptor (UniProt P03372 P03372:1-595)", "sequence (P03372 whole entry, one chain of several)": "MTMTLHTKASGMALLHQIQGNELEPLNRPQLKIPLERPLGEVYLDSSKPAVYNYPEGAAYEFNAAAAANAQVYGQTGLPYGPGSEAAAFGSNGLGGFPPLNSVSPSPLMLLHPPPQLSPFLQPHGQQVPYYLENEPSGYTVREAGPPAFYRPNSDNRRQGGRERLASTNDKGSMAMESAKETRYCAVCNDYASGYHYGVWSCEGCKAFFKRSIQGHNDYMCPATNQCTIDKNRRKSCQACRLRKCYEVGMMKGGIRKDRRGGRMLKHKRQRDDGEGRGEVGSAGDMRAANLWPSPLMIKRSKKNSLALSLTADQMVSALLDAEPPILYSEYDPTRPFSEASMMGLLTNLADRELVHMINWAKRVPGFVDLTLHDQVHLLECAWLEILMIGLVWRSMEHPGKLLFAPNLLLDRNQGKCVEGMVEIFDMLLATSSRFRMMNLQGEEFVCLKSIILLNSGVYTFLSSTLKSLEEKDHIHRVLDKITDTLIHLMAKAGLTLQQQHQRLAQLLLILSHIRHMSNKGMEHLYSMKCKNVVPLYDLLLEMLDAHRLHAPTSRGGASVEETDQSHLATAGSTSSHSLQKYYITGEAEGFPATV", "assay": "EMSA; ER complex shown for comparison", "details": "chain copies: 2 (inferred); label: 32P", "experimental": "(§1) (a) In vitro synthesized RXRα was incubated either with (+) or without (−) indicated hormones (10^-7M 9-cis-RA; 10^-6M RA; 10^-6M T_3) in the presence or absence of in vitro synthesized TRα or RARβ for 30 min at room temperature. After this preincubation, the reaction mixtures were analyzed by gel retardation assay using ^32P-labeled TREpal as probe. Lane 1 represents the nonspecific binding of unprogrammed reticulocyte lysate. Open triangles indicate the nonspecific complex observed with unprogrammed reticulocyte lysate. Solid triangles indicate the specific TRα-RXRα heterodimer binding. Arrows indicate specific RXRα homodimer binding. The RXRα/RARβ heterodimer migrates at the same position as the RXRα homodimer. For comparison, the effect of 9-cis-RA on RARβ binding is shown.\n(§2) FIGS. 4a and 4c show the response element specific binding of RXR homodimer. The effect of 9-cis-RA on RXR binding on RA specific response elements (a), T_3 specific response elements (b), or estrogen specific response element (c) was analyzed by gel retardation assays as described in FIG. 1a. For comparison, the binding of RXR/RAR heterodimer (a), RXR/TR heterodimer (b) or estrogen receptor (c) is shown. Open triangles indicate the nonspecific binding of unprogrammed reticulocyte lysate. Solid triangle indicates the RAR/RXR heterodimer complex (a), TR/RXR heterodimer complex (b) or ER complexes (c). […]"}, "RXR alpha homodimer [1]": {"molecular_target": "T1, RXR alpha homodimer (UniProt P19793 P19793:1-462)", "T1 sequence (P19793 whole entry, one chain of several)": "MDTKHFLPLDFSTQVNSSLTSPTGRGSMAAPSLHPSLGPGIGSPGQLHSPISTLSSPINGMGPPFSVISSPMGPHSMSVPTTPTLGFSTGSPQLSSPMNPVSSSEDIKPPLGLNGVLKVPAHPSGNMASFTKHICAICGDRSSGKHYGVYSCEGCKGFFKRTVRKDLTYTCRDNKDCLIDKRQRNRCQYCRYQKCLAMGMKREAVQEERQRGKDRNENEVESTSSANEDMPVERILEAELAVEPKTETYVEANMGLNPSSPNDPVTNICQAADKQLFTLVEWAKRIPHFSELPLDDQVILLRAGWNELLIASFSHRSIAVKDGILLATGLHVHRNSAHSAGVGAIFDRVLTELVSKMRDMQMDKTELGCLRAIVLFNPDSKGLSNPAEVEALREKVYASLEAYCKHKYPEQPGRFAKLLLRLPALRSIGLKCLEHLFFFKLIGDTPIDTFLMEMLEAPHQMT", "assay": "EMSA; with 9-cis-RA", "details": "chain copies: 2 (stated); label: 32P", "experimental": "as §1, §2"}, "RXR alpha homodimer [2]": {"molecular_target": "T1, RXR alpha homodimer", "assay": "EMSA; with or without 9-cis-RA", "details": "chain copies: 2 (stated); label: 32P", "experimental": "as §1, §2"}, "[3]": {"molecular_target": "TR alpha/RXR alpha heterodimer (UniProt P10827-2;P19793 P10827-2:1-410,P19793:1-462)", "sequence (P10827 other isoform, or with tags, fused parts or gaps, chain 1 of 2)": "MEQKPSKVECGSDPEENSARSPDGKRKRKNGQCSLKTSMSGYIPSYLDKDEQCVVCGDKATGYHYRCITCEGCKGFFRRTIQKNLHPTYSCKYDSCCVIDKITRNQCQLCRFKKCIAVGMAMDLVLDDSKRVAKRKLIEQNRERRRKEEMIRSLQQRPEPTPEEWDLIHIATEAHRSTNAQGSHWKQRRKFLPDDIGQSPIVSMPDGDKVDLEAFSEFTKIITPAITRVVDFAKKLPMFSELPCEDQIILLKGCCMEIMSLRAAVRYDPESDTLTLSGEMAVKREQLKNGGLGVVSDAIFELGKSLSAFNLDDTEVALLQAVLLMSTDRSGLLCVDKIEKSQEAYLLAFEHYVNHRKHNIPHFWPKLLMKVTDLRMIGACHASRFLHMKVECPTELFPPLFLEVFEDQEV", "sequence (P19793 whole entry, chain 2 of 2)": "as the sequence (P19793 whole entry, one chain of several) above", "assay": "EMSA", "details": "label: 32P", "experimental": "as §1, §2"}, "RXR alpha homodimer [4]": {"molecular_target": "T1, RXR alpha homodimer", "assay": "EMSA; with 9-cis-RA; complex slower than heterodimer; reduced when RAR present", "details": "chain copies: 2 (stated); label: 32P", "experimental": "as §1\n(§3) (b) The effect of 9-cis-RA on RXR homodimer binding of ApoAI-RARE or CRBPII-RARE was analyzed essentially as described in FIG. 1a. Lane 1 represents the nonspecific binding of unprogrammed reticulocyte lysate, which are indicated by the open triangles. Solid triangles indicate the RAR/RXR heterodimer complex. Arrows indicate the specific RXR binding complex.\n(§4) Gel retardation assays using in vitro synthesized receptor protein are described in the FIG. 1 legend. The following oligonucleotides and their complements were used as probes in FIGS. 3 and 4."}, "RXR alpha homodimer [5]": {"molecular_target": "T1, RXR alpha homodimer", "assay": "EMSA; with 9-cis-RA (effect from 1e-9 M, optimal 1e-8 M); little binding without ligand; also induced by SR11217 and SR11237", "details": "chain copies: 2 (stated); label: 32P", "experimental": "as §1"}, "RXR alpha homodimer [6]": {"molecular_target": "T1, RXR alpha homodimer", "assay": "EMSA; strong with 9-cis-RA, lesser with 1e-6 M RA", "details": "chain copies: 2 (stated); label: 32P", "experimental": "as §1, §3, §4"}, "RAR beta": {"molecular_target": "T2, RAR beta (UniProt P10826-2 P10826-2:1-448)", "T2 sequence": "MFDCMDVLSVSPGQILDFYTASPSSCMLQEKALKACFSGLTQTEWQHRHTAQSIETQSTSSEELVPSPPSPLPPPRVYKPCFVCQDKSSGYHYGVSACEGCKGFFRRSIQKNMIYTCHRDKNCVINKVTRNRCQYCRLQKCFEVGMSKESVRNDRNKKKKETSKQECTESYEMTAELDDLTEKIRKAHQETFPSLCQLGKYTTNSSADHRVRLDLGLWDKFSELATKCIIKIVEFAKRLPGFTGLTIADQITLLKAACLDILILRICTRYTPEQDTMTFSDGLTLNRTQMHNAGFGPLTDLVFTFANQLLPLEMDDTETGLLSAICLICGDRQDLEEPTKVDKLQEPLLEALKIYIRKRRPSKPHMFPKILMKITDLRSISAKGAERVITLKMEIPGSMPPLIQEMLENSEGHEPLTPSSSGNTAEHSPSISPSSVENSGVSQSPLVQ", "assay": "EMSA; RAR homodimer not induced by 9-cis-RA", "details": "label: 32P", "experimental": "as §1, §3, §4"}},
  "data": [
    {"binder": "ERE (dsDNA) DNA 1: GATCTCAGGTCACTGTGACCTGAGATC DNA 2: GATCTCAGGTCACAGTGACCTGAGATC", "values": [
      {"measurement": "binding result", "setting": "Estrogen receptor", "value": "binds"}
    ]},
    {"binder": "DR-5 (dsDNA) DNA 1: GATCTCAGGTCATCCTCAGGTCAGATC DNA 2: GATCTGACCTGAGGATGACCTGAGATC", "values": [
      {"measurement": "binding result", "setting": "RXR alpha homodimer [1]", "value": "no binding"}
    ]},
    {"binder": "ME-TRE (dsDNA) DNA 1: GATCCAGGACGTTGGGGTTAGGGGAGGACAGTGGGATC DNA 2: GATCCCACTGTCCTCCCCTAACCCCAACGTCCTGGATC", "values": [
      {"measurement": "binding result", "setting": "RXR alpha homodimer [2]", "value": "no binding"},
      {"measurement": "binding result", "setting": "[3]", "value": "binds"}
    ]},
    {"binder": "CRBPII-RARE (dsDNA) DNA 1: GATCCAGGTCACAGGTCACAGGTCACAGTTCAAGATC DNA 2: GATCTTGAACTGTGACCTGTGACCTGTGACCTGGATC", "values": [
      {"measurement": "binding result", "setting": "RXR alpha homodimer [4]", "value": "binds"}
    ]},
    {"binder": "MHC-TRE (dsDNA) DNA 1: GATCCTGGAGGTGACAGGAGGACAGCGATC DNA 2: GATCGCTGTCCTCCTGTCACCTCCAGGATC", "values": [
      {"measurement": "binding result", "setting": "RXR alpha homodimer [2]", "value": "no binding"},
      {"measurement": "binding result", "setting": "[3]", "value": "binds"}
    ]},
    {"binder": "CRBPI-RARE (dsDNA) DNA 1: GATCCAGGTCAAAAAGTCAGGATC DNA 2: GATCCTGACTTTTTGACCTGGATC", "values": [
      {"measurement": "binding result", "setting": "RXR alpha homodimer [1]", "value": "no binding"}
    ]},
    {"binder": "TREpal (dsDNA) DNA 1: GATCTCAGGTCATGACCTGAGATC DNA 2: GATCTCAGGTCATGACCTGAGATC", "values": [
      {"measurement": "binding result", "setting": "RXR alpha homodimer [5]", "value": "binds"}
    ]},
    {"binder": "ApoAI-RARE (dsDNA) DNA 1: GATCAGGGCAGGGGTCAAGGGTTCAGTGATC DNA 2: GATCACTGAACCCTTGACCCCTGCCCTGATC", "values": [
      {"measurement": "binding result", "setting": "RXR alpha homodimer [6]", "value": "binds"},
      {"measurement": "binding result", "setting": "RAR beta", "value": "no binding"}
    ]}
  ]
}
